Results: patent US20200323888A1, “INHIBITORS” (VESTLANDETS INNOVASJONSSELSKAP AS, priority 2017, published 2020)
CoA = coenzyme A

Molecular target: T1, MBP-HishNAA80 fusion protein (MBP-Naa80) (human, UniProt Q93015-2 1-308)
T1 sequence (looked up): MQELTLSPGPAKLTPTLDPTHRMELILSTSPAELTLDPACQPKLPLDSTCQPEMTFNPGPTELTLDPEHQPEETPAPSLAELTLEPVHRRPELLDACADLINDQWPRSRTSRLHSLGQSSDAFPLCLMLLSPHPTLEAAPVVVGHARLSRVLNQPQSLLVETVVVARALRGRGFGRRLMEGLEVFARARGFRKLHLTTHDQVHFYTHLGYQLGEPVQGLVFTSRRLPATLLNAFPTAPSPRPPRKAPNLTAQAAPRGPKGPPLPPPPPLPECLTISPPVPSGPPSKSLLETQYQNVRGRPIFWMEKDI
Test: cell-based or functional assay

Q: {CoA-Ac}-EEEL-NH2 [EEEL (Naa80 bisubstrate analogue inhibitor)] was tested. Which “IC50 (µM), Nt-acetylation inhibition” value did it give?
A: Its value is 1.16 µM.

Q: {CoA-Ac}-DEEI-NH2 [DEEI (Naa80 bisubstrate analogue inhibitor)] was tested. Which “IC50 (µM), Nt-acetylation inhibition” value did it give?
A: Its value is 1.22 µM.

Q: How did the “IC50 (µM), Nt-acetylation inhibition” value turn out when {CoA-Ac}-EDEI-NH2 [EDEI (Naa80 bisubstrate analogue inhibitor)] was run?
A: The value was 0.76 µM.

Q: {CoA-Ac}-QEEI-NH2 [QEEI (Naa80 bisubstrate analogue inhibitor)] was tested. Which “IC50 (µM), Nt-acetylation inhibition” value did it give?
A: Its value is 2.23 µM.

Q: With {CoA-Ac}-DDEI-NH2 [DDEI (Naa80 bisubstrate analogue inhibitor)] as the binder, how does the “IC50 (µM), Nt-acetylation inhibition” value read?
A: Its value is 2.67 µM.

Q: For {CoA-Ac}-EEDL-NH2 [EEDL (Naa80 bisubstrate analogue inhibitor)], which “IC50 (µM), Nt-acetylation inhibition” value is on record?
A: Its value is 1.76 µM.

Q: Which “IC50 (µM), Nt-acetylation inhibition” value does the source give for {CoA-Ac}-EEDI-NH2 [EEDI (Naa80 bisubstrate analogue inhibitor)] here?
A: Its value is 0.17 µM.

Q: Which “IC50 (µM), Nt-acetylation inhibition” value does the source give for {CoA-Ac}-EEEI-NH2 [CoA-Ac-EEEI-NH2] here?
A: The value was 1.16 µM.

Q: With {CoA-Ac}-MDEL-NH2 [CoA-Ac-MDEL-NH2] as the binder, how does the “IC50 (µM), Nt-acetylation inhibition” value read?
A: Its value is 1.26 µM.

Q: {CoA-Ac}-EDQL-NH2 [EDQL (Naa80 bisubstrate analogue inhibitor)] was tested. Which “IC50 (µM), Nt-acetylation inhibition” value did it give?
A: The value was 0.85 µM.

Q: {CoA-Ac}-ESEL-NH2 [ESEL (Naa80 bisubstrate analogue inhibitor)] was tested. Which “IC50 (µM), Nt-acetylation inhibition” value did it give?
A: Its value is 11.5 µM.

Q: How did the “IC50 (µM), Nt-acetylation inhibition” value turn out when {CoA-Ac}-EDEL-NH2 [EDEL (Naa80 bisubstrate analogue inhibitor)] was run?
A: Its value is 0.15 µM.

Q: How did the “IC50 (µM), Nt-acetylation inhibition” value turn out when {CoA-Ac}-EDDI-NH2 [EDDI (Naa80 bisubstrate analogue inhibitor)] was run?
A: The value was 0.12 µM.

Q: How did the “IC50 (µM), Nt-acetylation inhibition” value turn out when {CoA-Ac}-PDEL-NH2 [PDEL (Naa80 bisubstrate analogue inhibitor)] was run?
A: Its value is 13.4 µM.

Q: Which “IC50 (µM), Nt-acetylation inhibition” value does the source give for {CoA-Ac}-DEDI-NH2 [DEDI (Naa80 bisubstrate analogue inhibitor)] here?
A: The value was 3.12 µM.

Q: Which “IC50 (µM), Nt-acetylation inhibition” value does the source give for {CoA-Ac}-DEEL-NH2 [DEEL (Naa80 bisubstrate analogue inhibitor)] here?
A: Its value is 4.73 µM.
